Measured values reported in publication PMC3538003, “A full-length recombinant Plasmodium falciparum PfRH5 protein induces inhibitory antibodies that are effective across common PfRH5 genetic variants” (Vaccine, 2013).
Like-named read-outs stand apart in the source and are kept apart here.

Tests used:
[1] = molecular target: 3D7 PfRH5-Cd4-biotin (P. falciparum Reticulocyte Binding Protein Homologue 5, 3D7 variant) (Plasmodium falciparum (3D7)); assay: SPR; equilibrium analysis; biotinylated PfRH5-Cd4 captured on a streptavidin chip, biotinylated rat Cd4d3+4 in the reference cell; serial dilutions of basigin-Cd4-6H injected at 20 µl/min; BIAcore T100, 37°C, HBS-EP; regeneration with 2M NaCl
[2] = molecular target: 7G8 PfRH5-Cd4-biotin (P. falciparum Reticulocyte Binding Protein Homologue 5, 7G8 variant) (Plasmodium falciparum (7G8)); assay: as above
[3] = molecular target: GB4 PfRH5-Cd4-biotin (P. falciparum Reticulocyte Binding Protein Homologue 5, GB4 variant) (Plasmodium falciparum (GB4)); assay: as above
[4] = molecular target: 7G8 PfRH5-Cd4-biotin (P. falciparum Reticulocyte Binding Protein Homologue 5, 7G8 variant) (Plasmodium falciparum (7G8)); assay: as above; remark: listed apart in the source
[5] = molecular target: GB4 PfRH5-Cd4-biotin (P. falciparum Reticulocyte Binding Protein Homologue 5, GB4 variant) (Plasmodium falciparum (GB4)); assay: as above; remark: listed apart in the source
[6] = molecular target: GB4 PfRH5-Cd4-biotin (P. falciparum Reticulocyte Binding Protein Homologue 5, GB4 variant) (Plasmodium falciparum (GB4)); assay: as above; remark: listed apart in the source
[7] = molecular target: 3D7 PfRH5-Cd4-biotin (P. falciparum Reticulocyte Binding Protein Homologue 5, 3D7 variant) (Plasmodium falciparum (3D7)); assay: SPR; kinetic analysis, simple 1:1 model fitted globally; biotinylated PfRH5-Cd4 captured on a streptavidin chip, biotinylated rat Cd4d3+4 in the reference cell; serial dilutions of basigin-Cd4-6H injected at 100 µl/min; BIAcore T100, 37°C, HBS-EP; regeneration with 2M NaCl
[8] = molecular target: 3D7 PfRH5-Cd4-biotin (P. falciparum Reticulocyte Binding Protein Homologue 5, 3D7 variant) (Plasmodium falciparum (3D7)); assay: as above; remark: listed apart in the source
[9] = molecular target: 3D7 PfRH5-Cd4-biotin (P. falciparum Reticulocyte Binding Protein Homologue 5, 3D7 variant) (Plasmodium falciparum (3D7)); assay: as above; remark: listed apart in the source
[10] = molecular target: 7G8 PfRH5-Cd4-biotin (P. falciparum Reticulocyte Binding Protein Homologue 5, 7G8 variant) (Plasmodium falciparum (7G8)); assay: as above
[11] = molecular target: GB4 PfRH5-Cd4-biotin (P. falciparum Reticulocyte Binding Protein Homologue 5, GB4 variant) (Plasmodium falciparum (GB4)); assay: as above
[12] = molecular target: 7G8 PfRH5-Cd4-biotin (P. falciparum Reticulocyte Binding Protein Homologue 5, 7G8 variant) (Plasmodium falciparum (7G8)); assay: as above; remark: listed apart in the source
[13] = molecular target: 7G8 PfRH5-Cd4-biotin (P. falciparum Reticulocyte Binding Protein Homologue 5, 7G8 variant) (Plasmodium falciparum (7G8)); assay: as above; remark: listed apart in the source
[14] = molecular target: GB4 PfRH5-Cd4-biotin (P. falciparum Reticulocyte Binding Protein Homologue 5, GB4 variant) (Plasmodium falciparum (GB4)); assay: as above; remark: listed apart in the source
[15] = molecular target: GB4 PfRH5-Cd4-biotin (P. falciparum Reticulocyte Binding Protein Homologue 5, GB4 variant) (Plasmodium falciparum (GB4)); assay: as above; remark: listed apart in the source
[16] = molecular target: human basigin extracellular region, soluble Cd4d3+4-6H-tagged (basigin-Cd4-6H) (human, UniProt P35613 138-325); assay: SPR; BIAcore T100; monomeric biotinylated PfRH5-Cd4 bait captured on a streptavidin-coated chip, Cd4-biotin in the reference flow cell; serial dilutions of purified basigin-Cd4-6H injected at 20 ul/min (equilibrium) or 100 ul/min (kinetics); Langmuir isotherm fit; conditions: both partners purified

basigin-L-Cd4d3+4-6H (extracellular region of human basigin) (from UniProt P35613 138-325) (domain or fragment)
Kd [1]: 1600 nM | Kd [2]: 1000 nM | Kd [3]: 1100 nM | Kd [4]: 800 nM | Kd [5]: 1000 nM | Kd [6]: 800 nM | koff [7]: 0.238 s⁻¹ | kon [7]: 93000 M⁻¹ s⁻¹ | koff [8]: 0.236 s⁻¹ | kon [8]: 95600 M⁻¹ s⁻¹ | koff [9]: 0.24 s⁻¹ | kon [9]: 89600 M⁻¹ s⁻¹ | koff [10]: 0.256 s⁻¹ | kon [10]: 128000 M⁻¹ s⁻¹ | koff [11]: 0.216 s⁻¹ | kon [11]: 118000 M⁻¹ s⁻¹ | koff [12]: 0.251 s⁻¹ | kon [12]: 125000 M⁻¹ s⁻¹ | koff [13]: 0.245 s⁻¹ | kon [13]: 122000 M⁻¹ s⁻¹ | koff [14]: 0.23 s⁻¹ | kon [14]: 110000 M⁻¹ s⁻¹ | koff [15]: 0.244 s⁻¹ | kon [15]: 95900 M⁻¹ s⁻¹

B1: 7G8 PfRH5-Cd4-biotin (P. falciparum Reticulocyte Binding Protein Homologue 5, 7G8 variant) (ligand)
chain: FENAIKKTKNQENNLALLPIKSTEEEKDDIKNGKDIKKEIDNDKENIKTNNAKDHSTYIKSYLNTNVNDGLKYLFIPSHNSFIKKYSVFNQINDGMLLNEKNDVKNNEDYKNVDYKNVNFLQYHFKELSNYNIANSIDILQEKEGHLDFVIIPHYTFLDYYKHLSYNSIYHKSSTYGKYIAVDAFIKKINEAYDKVKSKCNDIKNDLIATIKKLEHPYDINNKNDDSYRYDISEEIDDKSEETDDETEEVEDSIQDTDSNHAPSNKKKNDLMNRAFKKMMDEYNTKKKKLIKCIKNHENDFNKICMDMKNYGTNLFEQLSCYNNNFCNTNGIRYHYDEYIHKLILSVKSKNLNKDLSDMTNILQQSELLLTNLNKKMGSYIYIDTIKFIHKEMKHIFNRIEYHTKIINDKTKIIQDKIKLNIWRTFQKDELLKRILDMSNEYSLFITSDHLRQMLYNTFYSKEKHLNNIFHHLIYVLQMKFNDVPIKMEYFQTYKKNKPLTQ
modifications: monobiotinylated (biotin)
Kd [16]: 900 nM
